Among the data in PMC10558804 are stoichiometry N and tetramer fraction values, retold here.

Test in all cases: native gel or EMSA; blue native-PAGE (BN-PAGE) of membrane proteins extracted from whole-cell lysates of transfected HEK 293 cells, 10 mM n-dodecyl-β-maltoside, 4 to 16% (or 3 to 12%) Bis/Tris gels, Western blot with anti-GluA1 or anti-GluA2; AMPAR subunit expressed alone or with an auxiliary subunit (cDNA 1:1); oligomeric states (tetramer, dimer, monomer) by molecular mass; tetramer fraction from band intensities; association of an auxiliary subunit read from the upshift of the tetramer band

Assay [1] concerns the target GluA1 (rat, flip splice variant), wild type (rat (Rattus norvegicus)).
The target in assay [2] is GluA1(G816A) (rat (Rattus norvegicus)).
In assay [3] the target is GluA1(G816A)-TARP γ-2 tandem (rat (Rattus norvegicus) | rat).
Assay [4] has as its target GluA1-TARP γ-2 tandem (rat (Rattus norvegicus) | rat).
Assay [5] addresses GluA1-ΔECD (GluA1 lacking the extracellular ATD and LBD) (rat (Rattus norvegicus)).
The target of assay [6] is GluA2(R) (rat, flip splice variant, edited (R) form) (rat (Rattus norvegicus)).
The target of assay [7] is GluA2(R)(G823A) (rat (Rattus norvegicus)).

For orientation: stoichiometry N means a count of units in the complex or per binding partner. Turning to “GluA1 (rat, flip splice variant), wild type (receptor)”, in assay [1], the stoichiometry N is 4 and the tetramer fraction was found to be 0.84.

As for GluA1(G816A) (receptor), in assay [2], the tetramer fraction is 0.52.

For the substance GluA1(G816A)-TARP γ-2 tandem, in assay [3], the stoichiometry N was found to be 4.

GluA1-TARP γ-2 tandem: the stoichiometry N in assay [4] is 4.

In the case of “GluA1-ΔECD (GluA1 lacking the extracellular ATD and LBD) (domain or fragment)”, the stoichiometry N in assay [5] was determined as 4.

In the case of “GluA2(R) (rat, flip splice variant, edited (R) form) (receptor)”, in assay [6], the stoichiometry N came to 4 and the tetramer fraction is 0.89.

For the substance GluA2(R)(G823A) (receptor), the tetramer fraction in assay [7] worked out at 0.45.
